Usually Km stands for the concentration of substrate that gives half-maximal velocity. The kcat is the maximal rate divided by the concentration of active sites. In general, kcat/Km refers to the turnover number divided by the Michaelis constant. Broadly, the stoichiometry N is a count of units in the complex or per binding partner.

Here are results for 2 substances from paper PMC7948467, “Discovery of an ultraspecific triuret hydrolase (TrtA) establishes the triuret biodegradation pathway” (The Journal of Biological Chemistry, 2020).

The test system of one data set is T1, NC(=O)NC(N)=O.
T1 construct: recombinant
Description: ammonia release, Berthelot assay. It counts as biochemical, Rhodococcus sp. Mel. Conditions: phosphate buffer, pH optimum, 25 °C.

A further data set concerns T2, NC(=O)NC(=O)NC(N)=O.
T2 construct: recombinant
Description: ammonia release, Berthelot assay. Conditions: phosphate buffer, pH optimum, 25 °C, saturation not achieved. It counts as biochemical, Rhodococcus sp. Mel.

Data set [1] concerns the target Triuret hydrolase (TrtA) from Herbaspirillum sp. BH-1, wild type, His-tag cleaved (Herbaspirillum sp. BH-1). Nature of the data set: SEC; HiLoad 16/600 Superdex 200 pg, 50 mM Tris, 200 mM sodium chloride, pH 8, 1 ml/min; His-tag cleaved TrtA.

Chain of RhdBiuH (Rhodococcus sp. Mel) (chain, as listed by the source): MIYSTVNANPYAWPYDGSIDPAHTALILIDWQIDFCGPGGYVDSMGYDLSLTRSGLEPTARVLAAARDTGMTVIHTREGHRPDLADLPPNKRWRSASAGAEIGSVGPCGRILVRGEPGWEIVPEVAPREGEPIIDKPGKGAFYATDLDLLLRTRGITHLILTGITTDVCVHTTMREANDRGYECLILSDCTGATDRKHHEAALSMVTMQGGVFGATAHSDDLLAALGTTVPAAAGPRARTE

RhdBiuH (Rhodococcus sp. Mel): the Km in the data set with NC(=O)NC(N)=O came to 95 ± 26 µM. Also, in the data set on NC(=O)NC(=O)NC(N)=O, the kcat turned out to be 0.14 s⁻¹ and the kcat/Km came to 170 ± 40 M⁻¹ s⁻¹.

Regarding “Triuret hydrolase (TrtA) from Herbaspirillum sp. BH-1, wild type, His-tag cleaved (from UniProt A0A2N6JFX7 1-220) (enzyme)”, in data set [1], the stoichiometry N is 2.
